IntAct's records for PubMed 9528782

B1: DBF2 kinase activator protein MOB1 (Saccharomyces cerevisiae), P40484 (parent)
chain: MSFLQNFHISPGQTIRSTRGFKWNTANAANNAGSVSPTKATPHNNTINGNNNNANTINNRADFTNNPVNGYNESDHGRMSPVLTTPKRHAPPPEQLQNVTDFNYTPSHQKPFLQPQAGTTVTTHQDIKQIVEMTLGSEGVLNQAVKLPRGEDENEWLAVHCVDFYNQINMLYGSITEFCSPQTCPRMIATNEYEYLWAFQKGQPPVSVSAPKYVECLMRWCQDQFDDESLFPSKVTGTFPEGFIQRVIQPILRRLFRVYAHIYCHHFNEILELNLQTVLNTSFRHFCLFAQEFELLRPADFGPLLELVMELRDR
partner: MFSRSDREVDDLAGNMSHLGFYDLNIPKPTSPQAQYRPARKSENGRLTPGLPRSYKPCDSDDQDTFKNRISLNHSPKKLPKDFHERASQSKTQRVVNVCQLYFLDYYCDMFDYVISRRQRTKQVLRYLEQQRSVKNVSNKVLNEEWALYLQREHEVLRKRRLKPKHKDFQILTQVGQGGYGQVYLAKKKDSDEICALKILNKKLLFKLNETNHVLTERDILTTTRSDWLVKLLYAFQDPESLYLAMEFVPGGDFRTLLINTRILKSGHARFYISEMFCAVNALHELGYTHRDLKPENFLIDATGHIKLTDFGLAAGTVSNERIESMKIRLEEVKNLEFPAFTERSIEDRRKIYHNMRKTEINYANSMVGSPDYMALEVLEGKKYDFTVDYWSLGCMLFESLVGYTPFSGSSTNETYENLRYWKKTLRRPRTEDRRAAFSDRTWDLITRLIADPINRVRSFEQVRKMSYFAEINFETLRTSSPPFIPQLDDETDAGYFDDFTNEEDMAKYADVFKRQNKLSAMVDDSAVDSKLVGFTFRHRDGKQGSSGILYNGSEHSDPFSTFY
B2: DBF2 kinase activator protein MOB1 (Saccharomyces cerevisiae), P40484 (parent)
chain: B1 chain
partner: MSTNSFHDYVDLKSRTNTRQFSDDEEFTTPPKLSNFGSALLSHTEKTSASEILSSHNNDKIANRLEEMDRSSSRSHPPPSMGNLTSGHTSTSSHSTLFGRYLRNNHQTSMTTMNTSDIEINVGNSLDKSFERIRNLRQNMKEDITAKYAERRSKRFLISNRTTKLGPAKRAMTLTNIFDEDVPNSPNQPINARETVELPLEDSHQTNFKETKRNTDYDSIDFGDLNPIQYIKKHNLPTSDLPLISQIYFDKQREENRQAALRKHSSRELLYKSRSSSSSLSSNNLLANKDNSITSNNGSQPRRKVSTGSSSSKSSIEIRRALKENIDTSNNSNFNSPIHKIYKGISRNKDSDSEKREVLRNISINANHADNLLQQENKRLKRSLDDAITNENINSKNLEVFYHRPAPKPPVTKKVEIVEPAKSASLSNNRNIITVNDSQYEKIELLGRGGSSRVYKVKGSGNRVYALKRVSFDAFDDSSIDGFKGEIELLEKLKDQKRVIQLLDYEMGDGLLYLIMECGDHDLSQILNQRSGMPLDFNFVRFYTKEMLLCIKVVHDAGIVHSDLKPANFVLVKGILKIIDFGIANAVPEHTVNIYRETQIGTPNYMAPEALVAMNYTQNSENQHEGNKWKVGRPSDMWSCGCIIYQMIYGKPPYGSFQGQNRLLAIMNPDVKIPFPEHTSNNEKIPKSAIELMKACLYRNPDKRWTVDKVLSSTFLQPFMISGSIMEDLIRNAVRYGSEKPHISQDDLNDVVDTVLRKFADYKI
B3: DBF2 kinase activator protein MOB1 (Saccharomyces cerevisiae), P40484 (parent)
chain: B1 chain
partner: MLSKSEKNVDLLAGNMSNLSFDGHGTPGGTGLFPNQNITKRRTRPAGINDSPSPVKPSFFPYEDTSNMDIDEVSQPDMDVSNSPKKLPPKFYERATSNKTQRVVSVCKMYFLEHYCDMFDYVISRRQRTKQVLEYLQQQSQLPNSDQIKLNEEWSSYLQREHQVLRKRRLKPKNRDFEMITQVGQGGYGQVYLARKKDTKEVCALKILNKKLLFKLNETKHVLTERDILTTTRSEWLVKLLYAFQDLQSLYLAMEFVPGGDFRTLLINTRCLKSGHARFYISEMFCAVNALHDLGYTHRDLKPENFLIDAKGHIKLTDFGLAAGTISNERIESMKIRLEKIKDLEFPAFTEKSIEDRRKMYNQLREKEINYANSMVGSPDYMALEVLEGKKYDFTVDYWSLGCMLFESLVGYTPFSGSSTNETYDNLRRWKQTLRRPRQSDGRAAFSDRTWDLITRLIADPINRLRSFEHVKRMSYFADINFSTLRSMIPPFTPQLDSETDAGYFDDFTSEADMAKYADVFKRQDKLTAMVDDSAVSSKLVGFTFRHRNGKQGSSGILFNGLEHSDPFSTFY

Variants of: B1
Conditions: with dbf20_yeast DBF20, P32328

Row | effect of a mutation on the interaction | Variant
1 | disrupting interaction strength | MSFLQNFHISPGQTIRSTRGFKWNTANAANNAGSVSPTKATPHNNTINGNNNNANTINNRADFTNNPVNGYNESDHGRMSPVLTPPKRHAPPPEQLQNVTDFNYTPSHQKPFLQPQAGTTVTTHQDIKQIVEMTLGSEGVLNQAVKLPRGEDENEWLAVHCVDFYNRINMLYGSITEFCSPQHCPRMIATNEYEYLWAFQKGQPPVSVSAPKYVECLMRWCQDQFDDESLFPSKVTGTFPEGFIQRVIQPILRRLFRVYAHIYCHHFNEILELNLQTVLNTSFRHFCLFAQEFELLRPADFGPLLELVMELRDR [T85P;Q167R;T183H]
2 | disrupting interaction strength | MSFLQNFHISPGQTIRSTRGFKWNTANAANNAGSVSPTKATPHNNTINGNNNNANTINNRADFTNNPVNGYNESDHGRMSPVLTTPKRHAPPPEQLQNVTDFNYTPSHQKPFLQPQAGTTVTTHQDIKQIVEMTLGSEGVLNQAVKLPRGKDENEWLAVHCVDFYNQINMLYGSITEFCSPQTCPRMIATNEYEYLWAFQKGQPPVSVSAPKYVECLMRWCQDQFDDESLFPSKVTGTFPEGFIQRVIQPILRRLFRVYAHIYCHHFNEILELNLQTVLNTSFRHFCLFAQEFELLRPADFGPLLELVMELRDR [E151K]
3 | disrupting interaction strength | MSFLQNFHISPGQTIRSTRGFKWNTANAANNAGSVSPTKATPHNNTINGNNNNANTINNRADFTNNPVNGYNESDHGRMSPVLTTPKRHAPPPEQLQNVTDFNYTPSHQKPFLQPQAGTTVTTHQDIKQIVEMTLGSEGVLNQAVKLPRGEDENEWPIVHCVDFYNQINMLYGSITEFCSPQTCPRMIATNEYEYLWAFQKGQPPVSVSAPKYVECLMRWCQDQFDDESLFPSKVTGTFPEGFIQRVIQPILRRLFRVYAHIYCHHFNEILELNLQTVLNTSFRHFCLFAQEFELLRPADFGPLLELVMELRDR [L157P;A158I]

Variants of: B2
Conditions: with mps1_yeast MPS1, P54199

Row | effect of a mutation on the interaction | Variant
4 | decreasing interaction strength | MSFLQNFHISPGQTIRSTRGFKWNTANAANNAGSVSPTKATPHNNTINGNNNNANTINNRADFTNNPVNGYNESDHGRMSPVLTPPKRHAPPPEQLQNVTDFNYTPSHQKPFLQPQAGTTVTTHQDIKQIVEMTLGSEGVLNQAVKLPRGEDENEWLAVHCVDFYNRINMLYGSITEFCSPQHCPRMIATNEYEYLWAFQKGQPPVSVSAPKYVECLMRWCQDQFDDESLFPSKVTGTFPEGFIQRVIQPILRRLFRVYAHIYCHHFNEILELNLQTVLNTSFRHFCLFAQEFELLRPADFGPLLELVMELRDR [T85P;Q167R;T183H]
5 | with no effect | MSFLQNFHISPGQTIRSTRGFKWNTANAANNAGSVSPTKATPHNNTINGNNNNANTINNRADFTNNPVNGYNESDHGRMSPVLTTPKRHAPPPEQLQNVTDFNYTPSHQKPFLQPQAGTTVTTHQDIKQIVEMTLGSEGVLNQAVKLPRGKDENEWLAVHCVDFYNQINMLYGSITEFCSPQTCPRMIATNEYEYLWAFQKGQPPVSVSAPKYVECLMRWCQDQFDDESLFPSKVTGTFPEGFIQRVIQPILRRLFRVYAHIYCHHFNEILELNLQTVLNTSFRHFCLFAQEFELLRPADFGPLLELVMELRDR [E151K]
6 | with no effect | MSFLQNFHISPGQTIRSTRGFKWNTANAANNAGSVSPTKATPHNNTINGNNNNANTINNRADFTNNPVNGYNESDHGRMSPVLTTPKRHAPPPEQLQNVTDFNYTPSHQKPFLQPQAGTTVTTHQDIKQIVEMTLGSEGVLNQAVKLPRGEDENEWPIVHCVDFYNQINMLYGSITEFCSPQTCPRMIATNEYEYLWAFQKGQPPVSVSAPKYVECLMRWCQDQFDDESLFPSKVTGTFPEGFIQRVIQPILRRLFRVYAHIYCHHFNEILELNLQTVLNTSFRHFCLFAQEFELLRPADFGPLLELVMELRDR [L157P;A158I]

Variants of: B3
Conditions: with dbf2_yeast DBF2, P22204

Row | effect of a mutation on the interaction | Variant
7 | disrupting interaction strength | MSFLQNFHISPGQTIRSTRGFKWNTANAANNAGSVSPTKATPHNNTINGNNNNANTINNRADFTNNPVNGYNESDHGRMSPVLTTPKRHAPPPEQLQNVTDFNYTPSHQKPFLQPQAGTTVTTHQDIKQIVEMTLGSEGVLNQAVKLPRGKDENEWLAVHCVDFYNQINMLYGSITEFCSPQTCPRMIATNEYEYLWAFQKGQPPVSVSAPKYVECLMRWCQDQFDDESLFPSKVTGTFPEGFIQRVIQPILRRLFRVYAHIYCHHFNEILELNLQTVLNTSFRHFCLFAQEFELLRPADFGPLLELVMELRDR [E151K]
8 | disrupting interaction strength | MSFLQNFHISPGQTIRSTRGFKWNTANAANNAGSVSPTKATPHNNTINGNNNNANTINNRADFTNNPVNGYNESDHGRMSPVLTTPKRHAPPPEQLQNVTDFNYTPSHQKPFLQPQAGTTVTTHQDIKQIVEMTLGSEGVLNQAVKLPRGEDENEWPIVHCVDFYNQINMLYGSITEFCSPQTCPRMIATNEYEYLWAFQKGQPPVSVSAPKYVECLMRWCQDQFDDESLFPSKVTGTFPEGFIQRVIQPILRRLFRVYAHIYCHHFNEILELNLQTVLNTSFRHFCLFAQEFELLRPADFGPLLELVMELRDR [L157P;A158I]
9 | decreasing interaction strength | MSFLQNFHISPGQTIRSTRGFKWNTANAANNAGSVSPTKATPHNNTINGNNNNANTINNRADFTNNPVNGYNESDHGRMSPVLTPPKRHAPPPEQLQNVTDFNYTPSHQKPFLQPQAGTTVTTHQDIKQIVEMTLGSEGVLNQAVKLPRGEDENEWLAVHCVDFYNRINMLYGSITEFCSPQHCPRMIATNEYEYLWAFQKGQPPVSVSAPKYVECLMRWCQDQFDDESLFPSKVTGTFPEGFIQRVIQPILRRLFRVYAHIYCHHFNEILELNLQTVLNTSFRHFCLFAQEFELLRPADFGPLLELVMELRDR [T85P;Q167R;T183H]
